Data: patent US20250257126A1 (CAMBRIDGE ENTERPRISE, published 2025)
Blank lines part the entries; values can stand above or below the binder they belong to.

What was measured:
[1] = biological target: T1, human LGR5-eGFP transgene (human, UniProt O75473 22-907); assay: western blot of lysates of HEK293T cells expressing mLGR5, hLGR5 or cynoLGR5 transgenes, probed with α-LGR5v4
T1 construct: Tested on live or fixed cells and as cell lysates on western blots; also called hLGR5-eGFP; LGR5-GFP
T1 sequence: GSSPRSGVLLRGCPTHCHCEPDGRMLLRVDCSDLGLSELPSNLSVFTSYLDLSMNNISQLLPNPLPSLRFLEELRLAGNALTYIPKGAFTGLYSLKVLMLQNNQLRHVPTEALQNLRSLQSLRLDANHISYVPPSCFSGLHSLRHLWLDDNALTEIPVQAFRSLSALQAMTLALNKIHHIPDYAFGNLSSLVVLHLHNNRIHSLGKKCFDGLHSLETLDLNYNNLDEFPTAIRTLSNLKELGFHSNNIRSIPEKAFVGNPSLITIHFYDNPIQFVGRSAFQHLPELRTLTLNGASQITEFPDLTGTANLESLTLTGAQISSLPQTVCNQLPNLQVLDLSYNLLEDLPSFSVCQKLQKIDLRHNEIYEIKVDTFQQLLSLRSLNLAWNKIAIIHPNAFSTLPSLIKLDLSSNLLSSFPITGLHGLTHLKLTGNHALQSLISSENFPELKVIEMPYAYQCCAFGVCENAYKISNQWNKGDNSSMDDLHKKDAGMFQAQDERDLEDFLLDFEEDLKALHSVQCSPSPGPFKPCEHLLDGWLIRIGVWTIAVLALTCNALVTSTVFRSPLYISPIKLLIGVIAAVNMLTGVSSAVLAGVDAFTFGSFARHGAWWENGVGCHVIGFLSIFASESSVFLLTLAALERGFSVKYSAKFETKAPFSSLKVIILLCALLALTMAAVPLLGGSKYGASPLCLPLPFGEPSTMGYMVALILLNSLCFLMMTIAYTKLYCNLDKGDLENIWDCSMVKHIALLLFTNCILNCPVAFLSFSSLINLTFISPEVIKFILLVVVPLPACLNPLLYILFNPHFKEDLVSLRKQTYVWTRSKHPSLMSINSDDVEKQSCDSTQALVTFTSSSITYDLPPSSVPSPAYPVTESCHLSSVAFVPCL
Procedure: (§1) B. Indirect immune fluorescence analysis of human and murine LGR family expressing HEK293T cells using the a-LGR5v4 antibody (in red), the Alexa488-coupled Phalloidin F-actin probe alongside eGFP fluorescence imaging. In the bottom row of images, LGR5-expressing HEK293T cells were stained with a-LGR5v6. C. H&E staining of tissue sections from a-LGR5v6-ADC (top row) and a-LGR5v4-ADC (bottom row) treated mice.
(§2) Western blots of HEK293t, LoVo and NALM6 lysates was carried out with 40 μg of protein.

murine LGR5 transgene [2] = biological target: T2, murine LGR5 transgene (mouse, UniProt Q9Z1P4 22-907); assay: as above
T2 construct: whole, on cells; Overexpressed in HEK293T cells with N-terminal HA tag, V2 receptor tail and eGFP; also tested as lysate; also called mLGR5; mLGR5-eGFP
T2 sequence (looked up): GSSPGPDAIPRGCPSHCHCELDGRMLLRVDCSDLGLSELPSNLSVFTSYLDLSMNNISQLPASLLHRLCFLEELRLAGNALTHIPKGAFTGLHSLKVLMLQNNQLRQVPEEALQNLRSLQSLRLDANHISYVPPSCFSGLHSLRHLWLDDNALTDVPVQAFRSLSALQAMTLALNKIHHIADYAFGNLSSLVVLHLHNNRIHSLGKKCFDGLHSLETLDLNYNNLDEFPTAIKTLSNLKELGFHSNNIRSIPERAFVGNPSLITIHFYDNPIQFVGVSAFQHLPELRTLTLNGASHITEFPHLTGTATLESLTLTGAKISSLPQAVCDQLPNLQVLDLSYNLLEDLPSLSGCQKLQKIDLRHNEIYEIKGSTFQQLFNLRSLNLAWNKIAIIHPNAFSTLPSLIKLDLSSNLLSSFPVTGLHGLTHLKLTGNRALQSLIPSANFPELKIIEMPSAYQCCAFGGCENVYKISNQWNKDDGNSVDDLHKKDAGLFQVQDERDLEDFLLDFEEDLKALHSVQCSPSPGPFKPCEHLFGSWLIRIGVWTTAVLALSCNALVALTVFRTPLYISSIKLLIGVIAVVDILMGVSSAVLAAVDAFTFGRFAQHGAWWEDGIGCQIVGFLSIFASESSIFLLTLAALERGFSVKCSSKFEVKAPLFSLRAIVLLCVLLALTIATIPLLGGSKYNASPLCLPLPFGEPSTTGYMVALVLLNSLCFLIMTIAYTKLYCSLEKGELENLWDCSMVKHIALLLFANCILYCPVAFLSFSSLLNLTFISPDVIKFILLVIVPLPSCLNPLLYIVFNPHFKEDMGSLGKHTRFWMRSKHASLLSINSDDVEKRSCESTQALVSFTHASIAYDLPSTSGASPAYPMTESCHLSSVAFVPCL
Procedure: as §1, §2

[3] = biological target: T3, RAD-displayed Fragment 1A of human LGR5 (human); assay: bio-layer interferometry (Octet), captured RAD-displayed fragment
T3 construct: also called Frag1A
T3 sequence (O75473 22-37, looked up): GSSPRSGVLLRGCPTH

murine LGR5 transgene [4] = biological target: T2, murine LGR5 transgene; assay: western blot of lysates of HEK293T cells expressing the LGR transgenes
murine LGR5 transgene [5] = biological target: T2, murine LGR5 transgene; assay: western blot of lysates of HEK293T cells expressing mLGR5, hLGR5 or cynoLGR5 transgenes, probed with hybridoma clone 3

binding result [1]: binds
binding result (murine LGR5 transgene [2]): no binding
Kd [3]: 2 nM
B1: α-LGR5 variant 4 (antibody, human IgG1, kappa, V domains shown)
VH: QVQLVQSGAEVKKPGASVKVSCKASGYTFTNYWMQWVRQAPGQGLEWIGEIDPSDSYTNYNQKFQGRVTLTVDTSTSTAYMELSSLRSEDTAVYYCARSLSGYVDYWGQGTTVTVSS
VL: EIVMTQSPATLSLSPGERATLSCRASQDISNRLNWYQQKPGQAVRLLISYRSRRHTGIPARFSGSGSGTDYTLTISSLEPEDFAVYYCQQGNSLPPTFGGGTKLEIKR
notes: Humanized antibody; also called α-LGR5v4; clone 2.4

binding result (murine LGR5 transgene [4]): no binding
B2: hybridoma clone 12 (antibody, V domains shown)
VH: EVQLQQSGPELVKPGASVKISCKASGYTFTDYYMNWVKQSHGKSLEWIGDINPNNGGTIYNQKFKGKATLTVDKSSSTAYMELRSLTSEDSAVYYCASGYLFDYWGPGTTLTVSS
VL: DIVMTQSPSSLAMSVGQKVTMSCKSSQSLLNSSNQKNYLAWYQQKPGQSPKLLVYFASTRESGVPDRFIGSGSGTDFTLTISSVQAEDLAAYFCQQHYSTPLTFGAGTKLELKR
notes: Murine antibody; also called antibody 12

binding result (murine LGR5 transgene [5]): no binding
B3: α-LGR5 clone 3 (antibody, mouse IgG1, kappa, V domains shown)
VH: QVQLQQPGAELVKPGASVKLSCKASGYTFTSYWMQWVKQRPGQGLEWIGEIDPSDSYSNYNQKFKGKATLTVDTSSSTAYMQLSSLTSEDSAVYYCARSLSGYVDYWGQGTTLTVSS
VL: DIQMTQTTSSLSASLGDRVTISCRASQDISNRLNWYQQKPDGTVKLLISYRSRLQSGVPSRFSGSGSGTDYSLTISNLEEEDIATYFCQQGNTLPPTFGGGTKLEVRR
notes: Murine monoclonal antibody from hybridoma; also called hybridoma clone 3; antibody 3
